Source: patent US20240199746A1 (published 2024)

T1: Ax1 protein, extracellular domain (human, UniProt P30530 26-451)
T1 construct: extracellular domain; also called Axl; Ark
T1 sequence (looked up): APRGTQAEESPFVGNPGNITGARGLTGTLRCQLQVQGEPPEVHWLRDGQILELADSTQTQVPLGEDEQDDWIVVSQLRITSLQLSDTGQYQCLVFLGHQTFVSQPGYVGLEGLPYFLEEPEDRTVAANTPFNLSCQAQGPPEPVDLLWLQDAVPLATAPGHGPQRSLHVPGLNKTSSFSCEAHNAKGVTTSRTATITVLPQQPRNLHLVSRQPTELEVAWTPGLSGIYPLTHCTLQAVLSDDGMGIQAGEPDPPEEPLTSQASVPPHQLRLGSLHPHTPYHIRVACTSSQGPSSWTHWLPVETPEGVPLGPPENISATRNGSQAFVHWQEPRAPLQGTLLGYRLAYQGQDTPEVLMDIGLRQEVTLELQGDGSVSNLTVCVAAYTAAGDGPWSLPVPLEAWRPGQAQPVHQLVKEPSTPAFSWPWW


Key:
[1] = molecular target: T1, Ax1 protein, extracellular domain; test: ELISA, mutant diluted 1:3
Excerpt: (§1) The DNA encoding the wild-type antibody was evolved to generate a mutant antibody library using Comprehensive Positional Evolution (CPE), which each position in the template antibody is randomized one at a time. Each mutant antibody in the library has only one single point mutation. The mutant antibodies in the library were generated by simultaneously screening for selective binding affinity to Ax1 at pH 6.0 over pH 7.4 by ELISA. Two mutant antibody dilutions were used: 1:3 and 1:9 dilutions.

[2] = molecular target: T1, Ax1 protein, extracellular domain; test: ELISA, mutant diluted 1:9
Excerpt: as §1

Binder | Affinity ELISA CPE mutant ratio (1:3, pH 6.0/7.4) [1] | Affinity ELISA CPE mutant ratio (1:9, pH 6.0/7.4) [2]
HC-S103D (antibody, V domains shown, CPE single point mutant) VH: EVQLVQSGAEVKKPGATVKISCKVSGYSFTGHTMNWIRQPPGKGLEWIGLIKPSNGGTSYNQKFKGRVTISADKSISTAYLQWSSLKASDTAMYYCAHGHYEDYFAMDYWGQGTLVTVSS VL: DIQMTQSPSSLSASVGDRVTITCKASQDVSSAVAWYQQKPGQAPRLLIYWASTRHTGVPSRFSGSGSGTEFTLTISSLQPDDFATYYCQEHFSTPLTFGQGTKVEIK | 4.24 | 2.23
HC-T030A (antibody, V domains shown, CPE single point mutant) VH: EVQLVQSGAEVKKPGATVKISCKVSGYSFAGHTMNWIRQPPGKGLEWIGLIKPSNGGTSYNQKFKGRVTISADKSISTAYLQWSSLKASDTAMYYCAHGHYESYFAMDYWGQGTLVTVSS VL: DIQMTQSPSSLSASVGDRVTITCKASQDVSSAVAWYQQKPGQAPRLLIYWASTRHTGVPSRFSGSGSGTEFTLTISSLQPDDFATYYCQEHFSTPLTFGQGTKVEIK | 1.29 | 1.76
HC-Y101N (antibody, V domains shown, CPE single point mutant) VH: EVQLVQSGAEVKKPGATVKISCKVSGYSFTGHTMNWIRQPPGKGLEWIGLIKPSNGGTSYNQKFKGRVTISADKSISTAYLQWSSLKASDTAMYYCAHGHNESYFAMDYWGQGTLVTVSS VL: DIQMTQSPSSLSASVGDRVTITCKASQDVSSAVAWYQQKPGQAPRLLIYWASTRHTGVPSRFSGSGSGTEFTLTISSLQPDDFATYYCQEHFSTPLTFGQGTKVEIK | 2.17 | 2.91
LC-A032L (antibody, V domains shown, CPE single point mutant) VH: EVQLVQSGAEVKKPGATVKISCKVSGYSFTGHTMNWIRQPPGKGLEWIGLIKPSNGGTSYNQKFKGRVTISADKSISTAYLQWSSLKASDTAMYYCAHGHYESYFAMDYWGQGTLVTVSS VL: DIQMTQSPSSLSASVGDRVTITCKASQDVSSLVAWYQQKPGQAPRLLIYWASTRHTGVPSRFSGSGSGTEFTLTISSLQPDDFATYYCQEHFSTPLTFGQGTKVEIK | 1.9 | 2.27
HC-S103Q (antibody, V domains shown, CPE single point mutant) VH: EVQLVQSGAEVKKPGATVKISCKVSGYSFTGHTMNWIRQPPGKGLEWIGLIKPSNGGTSYNQKFKGRVTISADKSISTAYLQWSSLKASDTAMYYCAHGHYEQYFAMDYWGQGTLVTVSS VL: DIQMTQSPSSLSASVGDRVTITCKASQDVSSAVAWYQQKPGQAPRLLIYWASTRHTGVPSRFSGSGSGTEFTLTISSLQPDDFATYYCQEHFSTPLTFGQGTKVEIK | 0.912 | 2.26
HC-Y104P (antibody, V domains shown, CPE single point mutant) VH: EVQLVQSGAEVKKPGATVKISCKVSGYSFTGHTMNWIRQPPGKGLEWIGLIKPSNGGTSYNQKFKGRVTISADKSISTAYLQWSSLKASDTAMYYCAHGHYESPFAMDYWGQGTLVTVSS VL: DIQMTQSPSSLSASVGDRVTITCKASQDVSSAVAWYQQKPGQAPRLLIYWASTRHTGVPSRFSGSGSGTEFTLTISSLQPDDFATYYCQEHFSTPLTFGQGTKVEIK | 2.54 | 2.42
HC-T033I (antibody, V domains shown, CPE single point mutant) VH: EVQLVQSGAEVKKPGATVKISCKVSGYSFTGHIMNWIRQPPGKGLEWIGLIKPSNGGTSYNQKFKGRVTISADKSISTAYLQWSSLKASDTAMYYCAHGHYESYFAMDYWGQGTLVTVSS VL: DIQMTQSPSSLSASVGDRVTITCKASQDVSSAVAWYQQKPGQAPRLLIYWASTRHTGVPSRFSGSGSGTEFTLTISSLQPDDFATYYCQEHFSTPLTFGQGTKVEIK | 1.59 | 1

Next, values leading:

Affinity ELISA CPE mutant ratio (1:3, pH 6.0/7.4) [1] | Affinity ELISA CPE mutant ratio (1:9, pH 6.0/7.4) [2] | Binder
3.86 | 4.58 | LC-F092C (antibody, V domains shown, CPE single point mutant) VH: EVQLVQSGAEVKKPGATVKISCKVSGYSFTGHTMNWIRQPPGKGLEWIGLIKPSNGGTSYNQKFKGRVTISADKSISTAYLQWSSLKASDTAMYYCAHGHYESYFAMDYWGQGTLVTVSS VL: DIQMTQSPSSLSASVGDRVTITCKASQDVSSAVAWYQQKPGQAPRLLIYWASTRHTGVPSRFSGSGSGTEFTLTISSLQPDDFATYYCQEHCSTPLTFGQGTKVEIK
3 | 2.6 | LC-A034D (antibody, V domains shown, CPE single point mutant) VH: EVQLVQSGAEVKKPGATVKISCKVSGYSFTGHTMNWIRQPPGKGLEWIGLIKPSNGGTSYNQKFKGRVTISADKSISTAYLQWSSLKASDTAMYYCAHGHYESYFAMDYWGQGTLVTVSS VL: DIQMTQSPSSLSASVGDRVTITCKASQDVSSAVDWYQQKPGQAPRLLIYWASTRHTGVPSRFSGSGSGTEFTLTISSLQPDDFATYYCQEHFSTPLTFGQGTKVEIK
1.41 | 2.2 | LC-A051N (antibody, V domains shown, CPE single point mutant) VH: EVQLVQSGAEVKKPGATVKISCKVSGYSFTGHTMNWIRQPPGKGLEWIGLIKPSNGGTSYNQKFKGRVTISADKSISTAYLQWSSLKASDTAMYYCAHGHYESYFAMDYWGQGTLVTVSS VL: DIQMTQSPSSLSASVGDRVTITCKASQDVSSAVAWYQQKPGQAPRLLIYWNSTRHTGVPSRFSGSGSGTEFTLTISSLQPDDFATYYCQEHFSTPLTFGQGTKVEIK
2.24 | 2.14 | LC-A051I (antibody, V domains shown, CPE single point mutant) VH: EVQLVQSGAEVKKPGATVKISCKVSGYSFTGHTMNWIRQPPGKGLEWIGLIKPSNGGTSYNQKFKGRVTISADKSISTAYLQWSSLKASDTAMYYCAHGHYESYFAMDYWGQGTLVTVSS VL: DIQMTQSPSSLSASVGDRVTITCKASQDVSSAVAWYQQKPGQAPRLLIYWISTRHTGVPSRFSGSGSGTEFTLTISSLQPDDFATYYCQEHFSTPLTFGQGTKVEIK
2 | 1.41 | LC-A034Q (antibody, V domains shown, CPE single point mutant) VH: EVQLVQSGAEVKKPGATVKISCKVSGYSFTGHTMNWIRQPPGKGLEWIGLIKPSNGGTSYNQKFKGRVTISADKSISTAYLQWSSLKASDTAMYYCAHGHYESYFAMDYWGQGTLVTVSS VL: DIQMTQSPSSLSASVGDRVTITCKASQDVSSAVQWYQQKPGQAPRLLIYWASTRHTGVPSRFSGSGSGTEFTLTISSLQPDDFATYYCQEHFSTPLTFGQGTKVEIK
1.92 | 1.57 | LC-A051P (antibody, V domains shown, CPE single point mutant) VH: EVQLVQSGAEVKKPGATVKISCKVSGYSFTGHTMNWIRQPPGKGLEWIGLIKPSNGGTSYNQKFKGRVTISADKSISTAYLQWSSLKASDTAMYYCAHGHYESYFAMDYWGQGTLVTVSS VL: DIQMTQSPSSLSASVGDRVTITCKASQDVSSAVAWYQQKPGQAPRLLIYWPSTRHTGVPSRFSGSGSGTEFTLTISSLQPDDFATYYCQEHFSTPLTFGQGTKVEIK
2.97 | 2.94 | LC-F092D (antibody, V domains shown, CPE single point mutant) VH: EVQLVQSGAEVKKPGATVKISCKVSGYSFTGHTMNWIRQPPGKGLEWIGLIKPSNGGTSYNQKFKGRVTISADKSISTAYLQWSSLKASDTAMYYCAHGHYESYFAMDYWGQGTLVTVSS VL: DIQMTQSPSSLSASVGDRVTITCKASQDVSSAVAWYQQKPGQAPRLLIYWASTRHTGVPSRFSGSGSGTEFTLTISSLQPDDFATYYCQEHDSTPLTFGQGTKVEIK
4.76 | 2.92 | LC-A032M (antibody, V domains shown, CPE single point mutant) VH: EVQLVQSGAEVKKPGATVKISCKVSGYSFTGHTMNWIRQPPGKGLEWIGLIKPSNGGTSYNQKFKGRVTISADKSISTAYLQWSSLKASDTAMYYCAHGHYESYFAMDYWGQGTLVTVSS VL: DIQMTQSPSSLSASVGDRVTITCKASQDVSSMVAWYQQKPGQAPRLLIYWASTRHTGVPSRFSGSGSGTEFTLTISSLQPDDFATYYCQEHFSTPLTFGQGTKVEIK
2.63 | 2.4 | LC-A034N (antibody, V domains shown, CPE single point mutant) VH: EVQLVQSGAEVKKPGATVKISCKVSGYSFTGHTMNWIRQPPGKGLEWIGLIKPSNGGTSYNQKFKGRVTISADKSISTAYLQWSSLKASDTAMYYCAHGHYESYFAMDYWGQGTLVTVSS VL: DIQMTQSPSSLSASVGDRVTITCKASQDVSSAVNWYQQKPGQAPRLLIYWASTRHTGVPSRFSGSGSGTEFTLTISSLQPDDFATYYCQEHFSTPLTFGQGTKVEIK
1.76 | 2 | LC-F092E (antibody, V domains shown, CPE single point mutant) VH: EVQLVQSGAEVKKPGATVKISCKVSGYSFTGHTMNWIRQPPGKGLEWIGLIKPSNGGTSYNQKFKGRVTISADKSISTAYLQWSSLKASDTAMYYCAHGHYESYFAMDYWGQGTLVTVSS VL: DIQMTQSPSSLSASVGDRVTITCKASQDVSSAVAWYQQKPGQAPRLLIYWASTRHTGVPSRFSGSGSGTEFTLTISSLQPDDFATYYCQEHESTPLTFGQGTKVEIK
